The target of the test is T1, human Calmodulin-1 (human, UniProt P0DP23 1-149).
T1 construct: also called hCaM-1; hCaM
As to the kind of experiment: SPR. To be noted: both partners purified.

B1: HIV-1 MA clade C (92BR025.8) construct with residue 1-109, lacking the C-terminal helix α5 (domain or fragment)
chain: MGARASILRGGKLDAWERIKLKPGGKKHYMMKHLVWASRELERFALDPGLLETSEGCKQIMKQLQPALQTGTKELISLHNTVATLYCVHEKIDVRDTKEALDKIKEEQN
As to B1, the binding result is “binds”.
